The target in assay [1] is T1, rHuman P-Cadherin/Fc Chimera, CF (R&D Systems Cat#861-PC) (human, UniProt P22223 108-654).
T1 construct: Bought Fc chimera; Fc part of the bought chimera not given
The experiment in a line: ECL (MSD Multi-Spot) binding, antigen spotted on plate; Fab 500 nM.

In assay [2] the target is T2, rHuman CD44/Fc Chimera, CF (R&D Systems Cat#3660-CD) (human, UniProt P16070 21-220).
T2 construct: Bought Fc chimera; Fc part of the bought chimera not given
The assay is described as above.

Assay [3] has as its target T3, rHuman Notch-1/Fc Chimera, CF (R&D Systems Cat#3647-TK) (human, UniProt P46531 19-526).
T3 construct: Bought Fc chimera; Fc part of the bought chimera not given
The assay is described as above.

For assay [4], the target named is T4, rHuman IGF-1 sR, CF (R&D Systems Cat#391-GR) (human, UniProt P08069 31-932).
T4 construct: Bought soluble receptor; also called insulin-like growth factor-1 soluble receptor; IGF-R1
The assay is described as above.

Assay [5] addresses T5, Recombinant Human DLL4 (R&D Systems Cat#1506-D4/CF) (human, UniProt Q9NR61 27-524).
T5 construct: Bought recombinant protein; also called delta-like protein 4
The description is as above.

Assay [6] deals with T6, rHuman Erythropoietin R/Fc Chimera, CF (R&D Systems Cat#963-ER) (human, UniProt P19235 25-250).
T6 construct: Bought Fc chimera; also called EPO R/Fc; erythropoietin receptor; Fc part of the bought chimera not given
T6 sequence: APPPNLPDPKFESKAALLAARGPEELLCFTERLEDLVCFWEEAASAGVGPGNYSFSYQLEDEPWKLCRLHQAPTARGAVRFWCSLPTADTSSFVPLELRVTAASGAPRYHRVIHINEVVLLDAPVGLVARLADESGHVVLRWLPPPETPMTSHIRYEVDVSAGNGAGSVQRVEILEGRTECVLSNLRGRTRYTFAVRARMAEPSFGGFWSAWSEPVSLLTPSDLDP
The description is as above.

Assay [7] concerns the target T1, rHuman P-Cadherin/Fc Chimera, CF (R&D …). In words: ECL (MSD Multi-Spot) binding, antigen spotted on plate; Fab 0.0625 nM.
For assay [8], the target named is T2, rHuman CD44/Fc Chimera, CF (R&D Systems …). The description is as above.
The target of assay [9] is T3, rHuman Notch-1/Fc Chimera, CF (R&D …). The assay is described as above.
Assay [10] addresses T4, rHuman IGF-1 sR, CF (R&D Systems …). Described as above.
Assay [11] addresses T5, Recombinant Human DLL4 (R&D Systems …). Described as above.
Assay [12] deals with T6, rHuman Erythropoietin R/Fc Chimera, CF …. The description is as above.
Assay [13] concerns the target T1, rHuman P-Cadherin/Fc Chimera, CF (R&D …). The experiment in a line: ECL (MSD Multi-Spot) binding, antigen spotted on plate; Fab 1.25 nM.
In assay [14] the target is T2, rHuman CD44/Fc Chimera, CF (R&D Systems …). Described as above.
The target in assay [15] is T3, rHuman Notch-1/Fc Chimera, CF (R&D …). Described as above.
For assay [16], the target named is T4, rHuman IGF-1 sR, CF (R&D Systems …). Described as above.
Assay [17] concerns the target T5, Recombinant Human DLL4 (R&D Systems …). The assay is described as above.
For assay [18], the target named is T6, rHuman Erythropoietin R/Fc Chimera, CF …. The description is as above.
Assay [19] has as its target T1, rHuman P-Cadherin/Fc Chimera, CF (R&D …). The experiment in a line: ECL (MSD Multi-Spot) binding, antigen spotted on plate; Fab 25 nM.
In assay [20] the target is T2, rHuman CD44/Fc Chimera, CF (R&D Systems …). Described as above.
In assay [21] the target is T3, rHuman Notch-1/Fc Chimera, CF (R&D …). The description is as above.
Assay [22] has as its target T4, rHuman IGF-1 sR, CF (R&D Systems …). The assay is described as above.
Assay [23] concerns the target T5, Recombinant Human DLL4 (R&D Systems …). Described as above.
The target of assay [24] is T6, rHuman Erythropoietin R/Fc Chimera, CF …. The assay is described as above.
In assay [25] the target is T7, rHuman ErbB2/Fc Chimera, CF (R&D Systems Cat#1129-ER) (human, UniProt P04626 23-652).
T7 construct: Bought Fc chimera; also called human epidermal growth factor 2 receptor; HER2/neu; Fc part of the bought chimera not given
The experiment in a line: ECL (MSD Multi-Spot) binding, antigen spotted on plate; Fab 500 nM.

For assay [26], the target named is T8, rHuman HGF R/c-MET/Fc Chimera, CF (R&D Systems Cat#358-MT/CF) (human, UniProt P08581 25-932).
T8 construct: Bought Fc chimera; also called HGF R/Fc; hepatocyte growth factor receptor; Fc part of the bought chimera not given
The description is as above.

In assay [27] the target is T4, rHuman IGF-1 sR, CF (R&D Systems …). Described as above. This is another data set of the same source.
Assay [28] concerns the target T5, Recombinant Human DLL4 (R&D Systems …). The description is as above. The source holds these as a separate data set.
For assay [29], the target named is T9, rHuman EGF R/Fc Chimera, CF (R&D Systems Cat#344-ER) (human, UniProt P00533 25-645).
T9 construct: Bought Fc chimera; also called epidermal growth factor receptor; Fc part of the bought chimera not given
The description is as above.

Assay [30] addresses T7, rHuman ErbB2/Fc Chimera, CF (R&D …). The experiment in a line: ECL (MSD Multi-Spot) binding, antigen spotted on plate; Fab 50 nM.
The target in assay [31] is T8, rHuman HGF R/c-MET/Fc Chimera, CF (R&D …). Described as above.
For assay [32], the target named is T4, rHuman IGF-1 sR, CF (R&D Systems …). The assay is described as above.
Assay [33] addresses T5, Recombinant Human DLL4 (R&D Systems …). Described as above.
The target in assay [34] is T9, rHuman EGF R/Fc Chimera, CF (R&D …). Described as above.
Assay [35] has as its target T7, rHuman ErbB2/Fc Chimera, CF (R&D …). The experiment in a line: ECL (MSD Multi-Spot) binding, antigen spotted on plate; Fab 5 nM.
Assay [36] concerns the target T8, rHuman HGF R/c-MET/Fc Chimera, CF (R&D …). Described as above.
In assay [37] the target is T4, rHuman IGF-1 sR, CF (R&D Systems …). Described as above.
Assay [38] has as its target T5, Recombinant Human DLL4 (R&D Systems …). Described as above.
Assay [39] addresses T9, rHuman EGF R/Fc Chimera, CF (R&D …). The assay is described as above.
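Note: blank spot per well as comparator with Hit at signal to blank ratio of 4 or more.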

B1: Fab VH5-51_IGHD5-18*01>3_IGHJ4*01_G100K_G104T & V3-4_IGLJ1*01 (Fab, V domains shown)
VH: EVQLVQSGAEVKKPGESLKISCKGSGYSFTSYWIGWVRQMPGKGLEWMGIIYPGDSDTRYSPSFQGQVTISADKSISTAYLQWSSLKASDTAMYYCARRKYSYTYDYFDYWGQGTLVTVSS
VL: QTVVTQEPSFSVSPGGTVTLTCGLSSGSVSTSYYPSWYQQTPGQAPRTLIYSTNTRSSGVPDRFSGSILGNKAALTITGAQADDESDYYCVLYMGSGISYVFGTGTKVTVL
notes: Fab made in E. coli
Take B1: the ECL signal in assay [1] came to 815; in assay [2] it was 923; in assay [3], 703; in assay [4], 1110; in assay [5], 25900; in assay [6], 828. For the same molecule, the ECL signal in assay [7] turned out to be 331; in [8], 394; in [9] it was 439; in [10], 537; in [11], 1010; in assay [12] it was 332. Further, the ECL signal was 374 in assay [13]; 444 in [14]; 312 in [15]; 674 in assay [16]; 38800 in [17]; 448 in assay [18]. Besides, the ECL signal in assay [19] turned out to be 269; in assay [20] it was 570; in assay [21], 440; in [22], 780; in assay [23] it was 77900; in assay [24], 597.

B2: Fab VH1-46_IGHD6-6*01_IGHJ1*01_S102A_S103P_S104F_H111F & L6_IGKJ1*01 (Fab, V domains shown)
VH: QVQLVQSGAEVKKPGASVKVSCKASGYTFTSYYMHWVRQAPGQGLEWMGIINPSGGSTSYAQKFQGRVTMTRDTSTSTVYMELSSLRSEDTAVYYCAREEYAPFSAEYFQFWGQGTLVTVSS
VL: not shown
notes: Fab made in E. coli; The heavy chain also carries the CH1 with Flag and His tags of Plasmid A, and the light chain the kappa constant region of Plasmid C
Turning to B2, the ECL signal in assay [25] was 2620; in [26], 2040; in [27] it was 1870; in [28], 29900; in [29], 2510; in assay [30], 2110. For the same molecule, the ECL signal in [31] is 1280; in assay [32], 1230; in [33], 94200; in assay [34], 2040; in assay [35], 1380; in assay [36] it was 1020. The ECL signal is 917 in assay [37], 150000 in assay [38] and 1160 in assay [39].
